Experimental data reported in US20260176319A1 (KALLYOPE, published 2026).
Starred links: 1 amine or outer side, 2 acyl side, 3 side chain; linkers in the order of their positions; H or OH if unused. Non-standard residues stand in square brackets, D forms with d. Groups on a side chain read outwards from the residue. *: point of attachment. Trp(6-Me) = Cc1ccc2c(C[C@H](N)C(=O)O)c[nH]c2c1; Trp(7-F) = N[C@@H](Cc1c[nH]c2c(F)cccc12)C(=O)O; Trp(7-Me) = Cc1cccc2c(C[C@H](N)C(=O)O)c[nH]c12; d(γGlu) = O=C(O)[C@@H](CCC(=O)[*:2])N[*:1]; C18 diacid = O=C(O)CCCCCCCCCCCCCCCCC(=O)*; Palmitoyl = CCCCCCCCCCCCCCCC(=O)*; 2Pal = N[C@@H](Cc1ccccn1)C(=O)O; 3Pal = N[C@@H](Cc1cccnc1)C(=O)O; 4Pal = N[C@@H](Cc1ccncc1)C(=O)O; Nle = CCCC[C@H](N)C(=O)O; AEEA = NCCOCCOCC(=O)O; Aib = CC(C)(N)C(=O)O; Sar = CNCC(=O)O

Molecular target: human GRP receptor (human, UniProt P30550 1-384)
Sequence (P30550 whole entry): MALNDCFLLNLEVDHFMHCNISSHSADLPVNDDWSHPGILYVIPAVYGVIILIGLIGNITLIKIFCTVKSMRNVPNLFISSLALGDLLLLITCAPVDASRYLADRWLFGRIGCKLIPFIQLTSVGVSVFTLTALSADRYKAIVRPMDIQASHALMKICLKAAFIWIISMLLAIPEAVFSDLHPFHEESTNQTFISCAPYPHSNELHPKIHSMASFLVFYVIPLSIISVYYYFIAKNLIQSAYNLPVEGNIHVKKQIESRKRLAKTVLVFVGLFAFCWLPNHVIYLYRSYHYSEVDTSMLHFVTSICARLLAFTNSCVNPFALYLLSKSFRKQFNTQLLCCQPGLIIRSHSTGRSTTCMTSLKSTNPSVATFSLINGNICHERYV
Test: cell-based or functional assay

Row | hIP1 GRPR EC50 [nM] | Binder
1 | 42 | {C18 diacid}-[d(γGlu)][AEEA][AEEA][AEEA][AEEA]GNHWAV[dA]HL[Nle]-NH2 (SMILES CCCC[C@H](NC(=O)[C@H](CC(C)C)NC(=O)[C@H](Cc1c[nH]cn1)NC(=O)[C@@H](C)NC(=O)[C@@H](NC(=O)[C@H](C)NC(=O)[C@H](Cc1c[nH]c2ccccc12)NC(=O)[C@H](Cc1c[nH]cn1)NC(=O)[C@H](CC(N)=O)NC(=O)CNC(=O)COCCOCCNC(=O)COCCOCCNC(=O)COCCOCCNC(=O)COCCOCCNC(=O)CC[C@@H](NC(=O)CCCCCCCCCCCCCCCCC(=O)O)C(=O)O)C(C)C)C(N)=O) [Peptide 53]
2 | 8.25 | {C18 diacid}-[d(γGlu)][AEEA][AEEA]GRHWAV[dA]HL[Nle]-NH2 (SMILES CCCC[C@H](NC(=O)[C@H](CC(C)C)NC(=O)[C@H](Cc1c[nH]cn1)NC(=O)[C@@H](C)NC(=O)[C@@H](NC(=O)[C@H](C)NC(=O)[C@H](Cc1c[nH]c2ccccc12)NC(=O)[C@H](Cc1c[nH]cn1)NC(=O)[C@H](CCCNC(=N)N)NC(=O)CNC(=O)COCCOCCNC(=O)COCCOCCNC(=O)CC[C@@H](NC(=O)CCCCCCCCCCCCCCCCC(=O)O)C(=O)O)C(C)C)C(N)=O) [Peptide 61]
3 | 8.7 | Palmitoyl-[d(γGlu)][AEEA][AEEA]GN[3Pal]WAV[Aib]HL[Nle]-NH2 (SMILES CCCCCCCCCCCCCCCC(=O)N[C@H](CCC(=O)NCCOCCOCC(=O)NCCOCCOCC(=O)NCC(=O)N[C@@H](CC(N)=O)C(=O)N[C@@H](Cc1cccnc1)C(=O)N[C@@H](Cc1c[nH]c2ccccc12)C(=O)N[C@@H](C)C(=O)N[C@H](C(=O)NC(C)(C)C(=O)N[C@@H](Cc1c[nH]cn1)C(=O)N[C@@H](CC(C)C)C(=O)N[C@@H](CCCC)C(N)=O)C(C)C)C(=O)O) [Peptide 3]
4 | 0.95 | Palmitoyl-[d(γGlu)][AEEA][AEEA]GN[2Pal]WAV[dA]HL[Nle]-NH2 (SMILES CCCCCCCCCCCCCCCC(=O)N[C@H](CCC(=O)NCCOCCOCC(=O)NCCOCCOCC(=O)NCC(=O)N[C@@H](CC(N)=O)C(=O)N[C@@H](Cc1ccccn1)C(=O)N[C@@H](Cc1c[nH]c2ccccc12)C(=O)N[C@@H](C)C(=O)N[C@H](C(=O)N[C@H](C)C(=O)N[C@@H](Cc1c[nH]cn1)C(=O)N[C@@H](CC(C)C)C(=O)N[C@@H](CCCC)C(N)=O)C(C)C)C(=O)O) [Peptide 51]
5 | 6.05 | {C18 diacid}-[d(γGlu)][AEEA][AEEA]GK(Ac)HWAV[dA]HL[Nle]-NH2 (SMILES CCCC[C@H](NC(=O)[C@H](CC(C)C)NC(=O)[C@H](Cc1c[nH]cn1)NC(=O)[C@@H](C)NC(=O)[C@@H](NC(=O)[C@H](C)NC(=O)[C@H](Cc1c[nH]c2ccccc12)NC(=O)[C@H](Cc1c[nH]cn1)NC(=O)[C@H](CCCCNC(C)=O)NC(=O)CNC(=O)COCCOCCNC(=O)COCCOCCNC(=O)CC[C@@H](NC(=O)CCCCCCCCCCCCCCCCC(=O)O)C(=O)O)C(C)C)C(N)=O) [Peptide 65]
6 | 7.27 | {C18 diacid}-[d(γGlu)][AEEA][AEEA]GKHWAV[dA]HL[Nle]-NH2 (SMILES CCCC[C@H](NC(=O)[C@H](CC(C)C)NC(=O)[C@H](Cc1c[nH]cn1)NC(=O)[C@@H](C)NC(=O)[C@@H](NC(=O)[C@H](C)NC(=O)[C@H](Cc1c[nH]c2ccccc12)NC(=O)[C@H](Cc1c[nH]cn1)NC(=O)[C@H](CCCCN)NC(=O)CNC(=O)COCCOCCNC(=O)COCCOCCNC(=O)CC[C@@H](NC(=O)CCCCCCCCCCCCCCCCC(=O)O)C(=O)O)C(C)C)C(N)=O) [Peptide 60]
7 | 83.7 | {C18 diacid}-[d(γGlu)][AEEA][AEEA]GNHWAV[dA]FL[Nle]-NH2 (SMILES CCCC[C@H](NC(=O)[C@H](CC(C)C)NC(=O)[C@H](Cc1ccccc1)NC(=O)[C@@H](C)NC(=O)[C@@H](NC(=O)[C@H](C)NC(=O)[C@H](Cc1c[nH]c2ccccc12)NC(=O)[C@H](Cc1c[nH]cn1)NC(=O)[C@H](CC(N)=O)NC(=O)CNC(=O)COCCOCCNC(=O)COCCOCCNC(=O)CC[C@@H](NC(=O)CCCCCCCCCCCCCCCCC(=O)O)C(=O)O)C(C)C)C(N)=O) [Peptide 62]
8 | 4.22 | Palmitoyl-[d(γGlu)][AEEA][AEEA][AEEA][AEEA]GN[3Pal][Trp(7-Me)]AV[dA]HL[Nle]-NH2 (SMILES CCCCCCCCCCCCCCCC(=O)N[C@H](CCC(=O)NCCOCCOCC(=O)NCCOCCOCC(=O)NCCOCCOCC(=O)NCCOCCOCC(=O)NCC(=O)N[C@@H](CC(N)=O)C(=O)N[C@@H](Cc1cccnc1)C(=O)N[C@@H](Cc1c[nH]c2c(C)cccc12)C(=O)N[C@@H](C)C(=O)N[C@H](C(=O)N[C@H](C)C(=O)N[C@@H](Cc1c[nH]cn1)C(=O)N[C@@H](CC(C)C)C(=O)N[C@@H](CCCC)C(N)=O)C(C)C)C(=O)O) [Peptide 58]
9 | 49.4 | {C18 diacid}-[d(γGlu)][AEEA][AEEA]GN[3Pal]WAV[dA]HL[Nle]-NH2 (SMILES CCCC[C@H](NC(=O)[C@H](CC(C)C)NC(=O)[C@H](Cc1c[nH]cn1)NC(=O)[C@@H](C)NC(=O)[C@@H](NC(=O)[C@H](C)NC(=O)[C@H](Cc1c[nH]c2ccccc12)NC(=O)[C@H](Cc1cccnc1)NC(=O)[C@H](CC(N)=O)NC(=O)CNC(=O)COCCOCCNC(=O)COCCOCCNC(=O)CC[C@@H](NC(=O)CCCCCCCCCCCCCCCCC(=O)O)C(=O)O)C(C)C)C(N)=O) [Peptide 64]
10 | 1.97 | Palmitoyl-[d(γGlu)][AEEA][AEEA]GNH[Trp(7-F)]AV[dA]HL[Nle]-NH2 (SMILES CCCCCCCCCCCCCCCC(=O)N[C@H](CCC(=O)NCCOCCOCC(=O)NCCOCCOCC(=O)NCC(=O)N[C@@H](CC(N)=O)C(=O)N[C@@H](Cc1c[nH]cn1)C(=O)N[C@@H](Cc1c[nH]c2c(F)cccc12)C(=O)N[C@@H](C)C(=O)N[C@H](C(=O)N[C@H](C)C(=O)N[C@@H](Cc1c[nH]cn1)C(=O)N[C@@H](CC(C)C)C(=O)N[C@@H](CCCC)C(N)=O)C(C)C)C(=O)O) [Peptide 56]
11 | 1.1 | Palmitoyl-[d(γGlu)][AEEA][AEEA]GNHWAV[dA]HL[Nle][Sar]-NH2 (SMILES CCCCCCCCCCCCCCCC(=O)N[C@H](CCC(=O)NCCOCCOCC(=O)NCCOCCOCC(=O)NCC(=O)N[C@@H](CC(N)=O)C(=O)N[C@@H](Cc1c[nH]cn1)C(=O)N[C@@H](Cc1c[nH]c2ccccc12)C(=O)N[C@@H](C)C(=O)N[C@H](C(=O)N[C@H](C)C(=O)N[C@@H](Cc1c[nH]cn1)C(=O)N[C@@H](CC(C)C)C(=O)N[C@@H](CCCC)C(=O)N(C)CC(N)=O)C(C)C)C(=O)O) [Peptide 48]
12 | 4040 | EXXGNHWAVXHLK (Palmitoyl-D-γGlu-OEG-OEG-Gly-Asn-His-Trp-Ala-Val-D-Ala-His-Leu-Lys(Me)3-NH2) [Peptide 49]
13 | 4.75 | Palmitoyl-[d(γGlu)][AEEA][AEEA]GNH[Trp(6-Me)]AV[dA]HL[Nle]-NH2 (SMILES CCCCCCCCCCCCCCCC(=O)N[C@H](CCC(=O)NCCOCCOCC(=O)NCCOCCOCC(=O)NCC(=O)N[C@@H](CC(N)=O)C(=O)N[C@@H](Cc1c[nH]cn1)C(=O)N[C@@H](Cc1c[nH]c2cc(C)ccc12)C(=O)N[C@@H](C)C(=O)N[C@H](C(=O)N[C@H](C)C(=O)N[C@@H](Cc1c[nH]cn1)C(=O)N[C@@H](CC(C)C)C(=O)N[C@@H](CCCC)C(N)=O)C(C)C)C(=O)O) [Peptide 63]
14 | 72.8 | Palmitoyl-[d(γGlu)][AEEA][AEEA]GK([AEEA-AEEA-d(γGlu)-Palmitoyl])HWAV[dA]HL[Nle]-NH2 (SMILES CCCCCCCCCCCCCCCC(=O)N[C@H](CCC(=O)NCCOCCOCC(=O)NCCOCCOCC(=O)NCCCC[C@H](NC(=O)CNC(=O)COCCOCCNC(=O)COCCOCCNC(=O)CC[C@@H](NC(=O)CCCCCCCCCCCCCCC)C(=O)O)C(=O)N[C@@H](Cc1c[nH]cn1)C(=O)N[C@@H](Cc1c[nH]c2ccccc12)C(=O)N[C@@H](C)C(=O)N[C@H](C(=O)N[C@H](C)C(=O)N[C@@H](Cc1c[nH]cn1)C(=O)N[C@@H](CC(C)C)C(=O)N[C@@H](CCCC)C(N)=O)C(C)C)C(=O)O) [Peptide 57]
15 | 2.01 | Palmitoyl-[d(γGlu)][AEEA][AEEA][AEEA][AEEA]GNH[Trp(7-Me)]AV[dA]HL[Nle]-NH2 (SMILES CCCCCCCCCCCCCCCC(=O)N[C@H](CCC(=O)NCCOCCOCC(=O)NCCOCCOCC(=O)NCCOCCOCC(=O)NCCOCCOCC(=O)NCC(=O)N[C@@H](CC(N)=O)C(=O)N[C@@H](Cc1c[nH]cn1)C(=O)N[C@@H](Cc1c[nH]c2c(C)cccc12)C(=O)N[C@@H](C)C(=O)N[C@H](C(=O)N[C@H](C)C(=O)N[C@@H](Cc1c[nH]cn1)C(=O)N[C@@H](CC(C)C)C(=O)N[C@@H](CCCC)C(N)=O)C(C)C)C(=O)O) [Peptide 59]
16 | 1.75 | Palmitoyl-[d(γGlu)][AEEA][AEEA]GN[4Pal]WAV[dA]HL[Nle]-NH2 (SMILES CCCCCCCCCCCCCCCC(=O)N[C@H](CCC(=O)NCCOCCOCC(=O)NCCOCCOCC(=O)NCC(=O)N[C@@H](CC(N)=O)C(=O)N[C@@H](Cc1ccncc1)C(=O)N[C@@H](Cc1c[nH]c2ccccc12)C(=O)N[C@@H](C)C(=O)N[C@H](C(=O)N[C@H](C)C(=O)N[C@@H](Cc1c[nH]cn1)C(=O)N[C@@H](CC(C)C)C(=O)N[C@@H](CCCC)C(N)=O)C(C)C)C(=O)O) [Peptide 52]
17 | 3.12 | Palmitoyl-[d(γGlu)][AEEA][AEEA][AEEA][AEEA]GNHWAV[dA]HL[Nle]-NH2 (SMILES CCCCCCCCCCCCCCCC(=O)N[C@H](CCC(=O)NCCOCCOCC(=O)NCCOCCOCC(=O)NCCOCCOCC(=O)NCCOCCOCC(=O)NCC(=O)N[C@@H](CC(N)=O)C(=O)N[C@@H](Cc1c[nH]cn1)C(=O)N[C@@H](Cc1c[nH]c2ccccc12)C(=O)N[C@@H](C)C(=O)N[C@H](C(=O)N[C@H](C)C(=O)N[C@@H](Cc1c[nH]cn1)C(=O)N[C@@H](CC(C)C)C(=O)N[C@@H](CCCC)C(N)=O)C(C)C)C(=O)O) [Peptide 54]
